This is an account of results in US20180037657A1 (AGENSYS, published 2018).

The target of test [1] is FLT3 on the cell surface (human leukemia cell lines and patient cells) (human) (UniProt P36888). Kind of test: flow cytometry, biotinylated antibody 10 ug/ml + Streptavidin-PE, PL-21 cells (AML).
For test [2] the target is unchanged. Kind of test: flow cytometry, biotinylated antibody 10 ug/ml + Streptavidin-PE, MOLM-13 cells (AML).
Test [3] shares this target. Kind of test: flow cytometry, biotinylated antibody 10 ug/ml + Streptavidin-PE, NALM-1 cells (CML).
Test [4] shares this target. Kind of test: flow cytometry, biotinylated antibody 10 ug/ml + Streptavidin-PE, MONOMAC-1 cells (AML).
Test [5] has the same target. The test can be described thus: flow cytometry, biotinylated antibody 10 ug/ml + Streptavidin-PE, SEM cells (B-ALL).
The target is the same in test [6]. Kind of test: flow cytometry, biotinylated antibody 10 ug/ml + Streptavidin-PE, REH cells (ALL).
Test [7] shares this target. The test can be described thus: flow cytometry, biotinylated antibody 10 ug/ml + Streptavidin-PE, RS4;11 cells (B-ALL).
The target is the same in test [8]. The test can be described thus: flow cytometry, biotinylated antibody 10 ug/ml + Streptavidin-PE, SKM-1 cells (AML).
The target is the same in test [9]. Kind of test: flow cytometry, biotinylated antibody 10 ug/ml + Streptavidin-PE, EOL-1 cells (AML).
The target is the same in test [10]. Kind of test: flow cytometry, biotinylated antibody 10 ug/ml + Streptavidin-PE, MV-4-11 cells (AML).
For test [11] the target is unchanged. The test can be described thus: flow cytometry, biotinylated antibody 10 ug/ml + Streptavidin-PE, OCI-AML2 cells (AML).
For test [12] the target is unchanged. Kind of test: flow cytometry, biotinylated antibody 10 ug/ml + Streptavidin-PE, THP-1 cells (AML).
Test [13] has as its target T1, FLT3 on the cell surface (human leukemia cell lines and patient cells) (human, UniProt P36888 27-993).
T1 construct: Endogenous or recombinant FLT3 on cells; also called Fms like tyrosine kinase 3 receptor; Flk2
The test can be described thus: flow cytometry, biotinylated antibody 10 ug/ml + Streptavidin-PE, MOLM-13 cells (AML). As to the method:
(§1) CHv62.21 was tested for binding to AML and B-ALL cell lines grown in vitro. (See, Table VII). Briefly, CHv62.21 and an isotype matched control antibody were biotinylated using NHS LC biotin. In vitro, exponentially grown cancer cell lines were used for all experiments. Cells were harvested by and washed by centrifugation. Cells were Fc blocked to reduce non-specific binding. Antibodies were diluted to 10 ug/ml final concentration and co-incubated with cells at 4° C. for 1 hour. At the end of the incubation, cells were washed and incubated with secondary detection Streptavidin-PE antibody at a final 1:200 (2.5 ug/ml) dilution for 1 hour at 4° C. After washing un-bound secondary antibody, cells were analyzed by FACS and geometric mean fluorescence was determined and reported. Fluorescence ratio was calculated as follows: Geo mean cHv62.21/Geo mean isotype control=MFR, a measure of fold expression above isotype control.

Test [14] has as its target T1, FLT3 on the cell surface (human …). The test can be described thus: flow cytometry, biotinylated antibody 10 ug/ml + Streptavidin-PE, EOL-1 cells (AML). As to the method:
as §1

Test [15] has the same target. The test can be described thus: flow cytometry, biotinylated antibody 10 ug/ml + Streptavidin-PE, PL-21 cells (AML). As to the method:
as §1

For test [16] the target is unchanged. The test can be described thus: flow cytometry, biotinylated antibody 10 ug/ml + Streptavidin-PE, OCI-AML2 cells (AML). As to the method:
as §1

The target is the same in test [17]. Kind of test: flow cytometry, biotinylated antibody 10 ug/ml + Streptavidin-PE, MV-4-11 cells (AML). As to the method: as §1
For test [18] the target is unchanged. The test can be described thus: flow cytometry, biotinylated antibody 10 ug/ml + Streptavidin-PE, RS4;11 cells (B-ALL). As to the method:
as §1

The target is the same in test [19]. Kind of test: flow cytometry, biotinylated antibody 10 ug/ml + Streptavidin-PE, REH cells (ALL). As to the method: as §1
Test [20] shares this target. The test can be described thus: flow cytometry, biotinylated antibody 10 ug/ml + Streptavidin-PE, MONOMAC-1 cells (AML). As to the method:
as §1

The target is the same in test [21]. Kind of test: flow cytometry, biotinylated antibody 10 ug/ml + Streptavidin-PE, SEM cells (B-ALL). As to the method:
as §1

The target is the same in test [22]. The test can be described thus: flow cytometry, biotinylated antibody 10 ug/ml + Streptavidin-PE, SKM-1 cells (AML). As to the method: as §1
For test [23] the target is unchanged. Kind of test: flow cytometry, biotinylated antibody 10 ug/ml + Streptavidin-PE, NALM-1 cells (CML). As to the method:
as §1

Test [24] shares this target. Kind of test: flow cytometry, biotinylated antibody 10 ug/ml + Streptavidin-PE, THP-1 cells (AML). As to the method:
as §1

T1 sequence (P36888 27-993 T227M limits assumed): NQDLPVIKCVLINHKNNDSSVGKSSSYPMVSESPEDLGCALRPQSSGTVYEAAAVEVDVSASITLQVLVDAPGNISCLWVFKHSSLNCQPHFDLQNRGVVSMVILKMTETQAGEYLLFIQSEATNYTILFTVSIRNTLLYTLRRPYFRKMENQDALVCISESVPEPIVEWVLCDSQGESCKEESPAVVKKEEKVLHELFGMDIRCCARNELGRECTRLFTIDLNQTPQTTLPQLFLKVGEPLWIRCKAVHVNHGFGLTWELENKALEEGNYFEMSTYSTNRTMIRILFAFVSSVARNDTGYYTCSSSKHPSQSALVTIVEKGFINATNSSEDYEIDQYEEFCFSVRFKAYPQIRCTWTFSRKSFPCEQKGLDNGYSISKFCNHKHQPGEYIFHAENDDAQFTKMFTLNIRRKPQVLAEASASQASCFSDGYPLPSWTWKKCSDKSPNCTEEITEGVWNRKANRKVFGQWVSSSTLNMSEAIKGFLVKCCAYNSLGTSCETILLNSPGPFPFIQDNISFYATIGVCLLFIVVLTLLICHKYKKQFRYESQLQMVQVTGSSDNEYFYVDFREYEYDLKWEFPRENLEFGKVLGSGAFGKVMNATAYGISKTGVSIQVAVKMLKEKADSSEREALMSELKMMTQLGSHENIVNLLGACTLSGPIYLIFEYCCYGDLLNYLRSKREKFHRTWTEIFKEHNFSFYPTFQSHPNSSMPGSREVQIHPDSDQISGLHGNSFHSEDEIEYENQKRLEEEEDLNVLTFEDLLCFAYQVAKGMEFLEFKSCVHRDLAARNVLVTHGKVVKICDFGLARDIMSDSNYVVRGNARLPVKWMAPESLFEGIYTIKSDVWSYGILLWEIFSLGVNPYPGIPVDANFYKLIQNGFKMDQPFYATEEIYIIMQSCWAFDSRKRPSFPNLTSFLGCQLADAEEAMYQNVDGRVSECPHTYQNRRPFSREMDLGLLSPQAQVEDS
Sequence of FLT3 on the cell surface (human leukemia cell lines and patient cells) (human) (P36888 27-993 T227M limits assumed): as above

As to “isotype matched control antibody (Table VI)”, the Geometric Mean fluorescence in [1] worked out at 570; in [2], 320; in [3] it was 262; in [4], 338; in test [5], 212; in test [6] it was 235. The Geometric Mean fluorescence in test [7] stood at 213; in test [8], 445; in [9], 281; in [10] it was 366; in test [11], 329; in [12], 474.

B1: CHv62.21 MAb (antibody, human IgG1, kappa, V domains shown)
VH: EVQLVESGGGLVRPGGSLRLSCAASGFTFSGYSINWVRQAPGKGLEWVSSISSSSNYIYYADSVKGRFTISRDNAKNSLYLQMNSLRAEDTAVYYCAREGFIAGTTFDAFDIWGQGTMVTVSS
VL: DIQMTQSPSSLSASVGDRVTITCRASQGIRNDLGWYQQKPGKAPKRLIYAASSLQSGVPSRFSGSGSGTEFTLTISSLQPEDFATYYCLQHNGFPYTFGQGTKLEIKR
notes: also called cHv62-1b21.1
In the case of B1, the “MFR (Geo mean cHv62.21/Geo mean isotype control)” value in [13] is 44 fold; in [14] it was 50 fold; in [15] it was 7 fold; in [16], 17 fold; in [17], 8 fold; in [18], 86 fold. Further, the “MFR (Geo mean cHv62.21/Geo mean isotype control)” value in test [19] came to 69 fold; in [20], 34 fold; in test [21], 623 fold; in test [22], 7 fold; in [23], 49 fold; in test [24], 42 fold.
